Values quoted from earlier work, collected in publication PMC5969510, “Molecular mechanics of coiled coils loaded in the shear geometry” (Chemical Science, 2018).

Conditions: unzip geometry
Text: To overcome these limitations and to investigate the sequence–structure–mechanics relationship of coiled coils in more systematic detail, site-specific coupling strategies were used in more recent experiments so that the mechanical coordinate was precisely defined. Using coiled coil homodimers, the force was applied to both helices at the same terminus so that the coiled coils were mechanically loaded in the so-called ‘unzip’ geometry.[11],[17],[37],[38]

## vimentin: intermediate filament protein with coiled coil (literature)
  unzipping (unfolding) force: 8–15 pN
